Reference: PMC10249821

Molecular target: gp41 of HIV-1 IIIB (HIV-1 IIIB) (UniProt P04578)

For “Enfuvirtide Primary Reference Standard (peptide)”, which IC50 of inhibition of HIV-1 IIIB infection of MT-4 cells (MTT assay of virus-induced cytopathic effect, 5 days post infection) is on record?
Its IC50 of inhibition of HIV-1 IIIB infection of MT-4 cells (MTT assay of virus-induced cytopathic effect, 5 days post infection) is 18 nM.

biosynthesized enfuvirtide (peptide) was tested. Which IC50 of inhibition of HIV-1 IIIB infection of MT-4 cells (MTT assay of virus-induced cytopathic effect, 5 days post infection) did it give?
The IC50 of inhibition of HIV-1 IIIB infection of MT-4 cells (MTT assay of virus-induced cytopathic effect, 5 days post infection) was 45.3 nM.
